The text below walks through data of US20140308287A1 (SEA LANE BIOTECHNOLOGIES, published 2014).

Numbering of substitutions follows the chain as printed.

The labels stand for the following.
B1: 2995-A01 (other)
VH: EVQLLESGGGLVQPGGSLRLSCAASGFTFSSYWMHWVRQAPGKGLEWVAAISSSGTYTYYADSVKGRFTISRDNSKNTLYLQMNSLRAEDTAVYYCAKDNFILLNSWFDYWGQGTLVTVSS
light: QPVLHQPPAMSSALGTTIRLTCTLRNDHDIGVYSVYWYQQRPGHPPRFLLRYFSQSDKSQGPQVPPRFSGSKDVARNRGYLSISELQPEDEAMYYCAMGARSSVTHVFGSGTQLTVLSQPKATPSVTLFPPSSEELQANKATLVCLMNDFYPGILTVTWKADGTPITQGVEMTTPSKQSNNKYAASSYLSLTPEQWRSRRSYSCQVMHEGSTVEKTVAPAECS
B2: 2995-D01 (other)
VH: B1 VH with H35S, A50L, S53N, S54G, T56S, Y57I, T58K
light: B1 light
B3: 2995-A12 (other)
VH: B1 VH with S31D, H35N, A50N, S53G, S54G, T56G, T58I
surrogate light: B1 light
B4: 2995-C03 (other)
VH: B1 VH with A50G, S53G, S54G, T56R
surrogate light: B1 light
notes: copies: 1 + 1
B5: 2995-B10 (other)
VH: B1 VH with S53A, S54G, G55S, T56G, T58I
surrogate light: B1 light
notes: copies: 1 + 1
B6: 2995-A07 (other)
VH: B1 VH with A50G, S54G, T56A
light: B1 light
B7: 2995-H09 (other)
VH: B1 VH with S31N, A50S, S53N, S54G, T56R, T58I
light: B1 light
B8: 2995-A08 (other)
VH: B1 VH with A50G, S53N, S54G, T56S, Y57I, T58I
light: B1 light
B9: 2995-E12 (other)
VH: B1 VH with S31N, A50L, S54G, G55S, T58I, Y59S
light: B1 light
B10: 2995-D11 (other)
VH: B1 VH with A50V, S53N, S54N, T56R, T58K
surrogate light: B1 light
notes: copies: 1 + 1
B11: 2995-C07 (other)
VH: B1 VH with S31N, A50L, S54G, G55S, T58I, Y59S, F108L
light: B1 light
B12: 2995-G10 (other)
VH: B1 VH with S31D, H35N, A50N, S53N, S54G, T58I
light: B1 light
B13: 2995-C05 (other)
VH: B1 VH with S31D, S54G, G55S, T56S
surrogate light: B1 light
notes: copies: 1 + 1
B14: 2995-E08 (other)
VH: B1 VH with A50G, S54G, T56S, T58K
light: B1 light
B15: 2995-D07 (other)
VH: B1 VH with S31N, S53N, S54G, T56G, T58K
surrogate light: B1 light
notes: copies: 1 + 1
B16: 2995-A06 (other)
VH: B1 VH with A50G, S53D, S54G, T56A
surrogate light: B1 light
notes: copies: 1 + 1
B17: 2995-A05 (other)
VH: B1 VH with S31N, S53N, S54G, G55S, T56S
light: B1 light
B18: 2995-G11 (other)
VH: B1 VH with A49S, S54G, T56G, T58I
surrogate light: B1 light
notes: copies: 1 + 1
B19: 2995-A02 (other)
VH: B1 VH with H35N, A50L, S53N, S54G, T56G, Y57I, T58K
light: B1 light
notes: copies: 1 + 1
B20: 2995-H03 (other)
VH: B1 VH with S31D, A50V, S53G, S54G, T56A, T58K
light: B1 light
B21: 2995-D08 (other)
VH: B1 VH with S31D, S53W, S54G, T56S
light: B1 light
B22: 2995-C02 (other)
VH: B1 VH with S31N, H35N, A50N, S54G, T56S
surrogate light: B1 light
notes: copies: 1 + 1
B23: 2995-H11 (other)
VH: B1 VH with S31D, A49S, T56G, T58K
light: B1 light
B24: 2995-B06 (other)
VH: B1 VH with S31N, W33G, A50L, S54G, T56A
light: B1 light
B25: 2995-C10 (other)
VH: B1 VH with A50G, S53G, S54G, T56A
light: B1 light
notes: copies: 1 + 1
B26: 2995-H07 (other)
VH: B1 VH with S31D, H35N, A50L, S53N, S54N, T56S
light: B1 light
B27: 2995-B01 (other)
VH: B1 VH with S31D, W33A, A50L, S54G, T56R, T58K
light: B1 light
B28: 2995-F08 (other)
VH: B1 VH with A49S, A50G, S53N, S54N, T56R, T58K
light: B1 light
B29: 2995-B04 (other)
VH: B1 VH with S31N, A50L, S53N, S54N
light: B1 light
B30: 2995-D03 (other)
VH: B1 VH with W33A, A50L, S53N, S54G, G55S, T56G, T58K
light: B1 light
notes: copies: 1 + 1
B31: 2995-B02 (other)
VH: B1 VH with S31D, A50V, S54N, T56R
light: B1 light
notes: copies: 1 + 1
B32: 2995-A09 (other)
VH: B1 VH with A50G, S53Y, S54G
light: B1 light
B33: 3000-A07 (other)
VH: EVQLLESGGGLVQPGGSLRLSCAASGFTFSDYWMHWVRQAPGKGLEWVAVISGGGAYKYYADSVKGRFTISRDNSKNTLYLQMNSLRAEDTAVYYCAKDNEKNLYTWLDYWGQGTLVTVSS
surrogate light: B1 light
B34: 3000-B02 (other)
VH: B33 VH with D31S, G53S, A56N, K58I
surrogate light: B1 light
B35: 3000-B09 (other)
VH: B33 VH with V50L, G53S, A56G
light: B1 light
B36: 3000-A11 (other)
VH: B33 VH with D31S, V50L, G53W, A56G, Y57T
light: B1 light
notes: copies: 1 + 1
B37: 3000-A05 (other)
VH: B33 VH with V50L, G53A, A56T
light: B1 light
B38: 3000-C07 (other)
VH: B33 VH with D31S, H35S, V50L, G53N, A56S, Y57I
surrogate light: B1 light
B39: 3000-A08 (other)
VH: B33 VH with D31S, H35N, V50L, G53N, A56G, Y57I
light: B1 light
B40: 3000-E04 (other)
VH: B33 VH with G53W
surrogate light: B1 light
B41: 3000-G09 (other)
VH: B33 VH with D31S, V50L, G53N, A56G
light: B1 light
notes: copies: 1 + 1
B42: 3000-C03 (other)
VH: B33 VH with D31S, V50L, G53N, G54N, A56T
light: B1 light
notes: copies: 1 + 1
B43: 3000-A04 (other)
VH: B33 VH with D31S, V50L, G53A, A56T, Y57S
light: B1 light
notes: copies: 1 + 1

The target in one assay is T1, human ErbB3-Fc (R&D Systems) (human, UniProt P21860 20-643).
T1 construct: Bought protein; also called wild-type ErbB3-Fc fusion; immobilized ErbB3; not shown: Fc part of the bought fusion protein; not described
The assay can be described thus: ELISA on ErbB3-Fc, soluble monovalent Sab (Example 42). For orientation: ELISA stands for enzyme-linked immunosorbent assay.
Regarding B1, the concentration giving a half-maximal response (EC50) – broadly, the concentration needed to bring the measured effect to its halfway point – was found to be 0.071 nM.

The molecule B2 displayed an EC50 of 0.038 nM.

Molecule B3 gave an EC50 of 0.01 nM.

As for B4, the EC50 was 0.027 nM.

For B5, the EC50 was 0.032 nM.

The molecule B6 gave an EC50 of 0.022 nM.

As to B7, the response was half-maximal at 0.02 nM (EC50).

With B8, the EC50 came out at 0.02 nM.

With B9, the EC50 is 0.04 nM.

As for B10, the concentration giving a half-maximal response (EC50) is 0.027 nM.

Take B11: the 50% effective concentration (EC50) was 0.056 nM.

Molecule B12 yielded an EC50 of 0.022 nM.

Molecule B13 returned a half-maximal effective concentration (EC50) of 0.015 nM.

The molecule B14 gave an EC50 of 0.039 nM.

On to B15, for which the 50% effective concentration (EC50) amounted to 0.033 nM.

B16 yielded a half-maximal effective concentration (EC50) of 0.032 nM.

B17 registered an EC50 of 0.022 nM.

B18 showed an EC50 of 0.029 nM.

As to B19, the EC50 was determined as 0.018 nM.

Molecule B20 gave an EC50 of 0.026 nM.

As to B21, the EC50 was 0.052 nM.

Regarding B22, it took 0.028 nM to reach a half-maximal effect (EC50).

On to B23, for which a half-maximal effect (EC50) was put at 0.063 nM.

As for B24, the EC50 came to 0.01 nM.

B25 showed an EC50 of 0.02 nM.

Molecule B26 showed an EC50 of 0.025 nM.

Take B27: the EC50 is 0.046 nM.

In turn, B28 came in with an EC50 of 0.059 nM.

For the molecule B29, the concentration giving a half-maximal response (EC50) was determined as 0.021 nM.

B30 gave an EC50 of 0.015 nM.

As to B31, the EC50 was determined as 0.016 nM.

As for B32, the EC50 was found to be 0.045 nM.

The target of another assay is T1, human ErbB3-Fc (R&D Systems). The assay is described as above. This is another data set of the same source.
The molecule B33 showed an EC50 of 0.087 nM.

B34 gave a 50% effective concentration (EC50) of 0.115 nM.

Molecule B35 displayed an EC50 of 0.07 nM.

Take B36: the EC50 was found to be 0.139 nM.

Consider B37, for which the half-maximal effective concentration (EC50) was determined as 0.082 nM.

In turn, B38 came in with a concentration for a half-maximal effect (EC50) of 0.102 nM.

Consider B39, for which the response was half-maximal at 0.072 nM (EC50).

B40 came in with an EC50 of 0.109 nM.

B41: a half-maximal effect (EC50) was put at 0.158 nM.

In the case of B42, a half-maximal response (EC50) required 0.164 nM.

B43 came in with an EC50 of 0.127 nM.
